Target: T1, GST-FHL3 (human, UniProt Q13643 1-280)
T1 construct: Four and a half LIM domain protein 3 (FHL3), human, full length cDNA amplified from pBV220/FHL3, in pGEX-4T-1; also called GST–FHL3 fusion protein; source: E. coli DH5α, purified (GSTrap FF column)
T1 sequence (looked up): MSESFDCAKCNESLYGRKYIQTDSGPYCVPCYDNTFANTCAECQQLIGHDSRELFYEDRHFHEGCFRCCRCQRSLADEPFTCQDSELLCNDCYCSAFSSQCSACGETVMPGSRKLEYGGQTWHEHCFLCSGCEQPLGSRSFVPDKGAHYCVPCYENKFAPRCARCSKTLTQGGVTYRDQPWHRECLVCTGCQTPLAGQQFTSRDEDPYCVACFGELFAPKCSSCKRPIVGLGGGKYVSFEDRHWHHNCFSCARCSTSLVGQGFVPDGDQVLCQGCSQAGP
Experiment: pull-down; purified GST-FHL3 or GST on Glutathione Agarose, His-MT-1X from in vitro translation added, 4°C overnight; Western blot with anti-His
Conditions: both partners purified

B1: His-MT-1X (natural protein)
chain: not shown
notes: MT-1X (metallothionein-1X), human; cDNA amplified by PCR from pACT2/MT-1X (the full length clone); also called pT7/MT-1X; source: in vitro translated (pT7CFE1-CHis)
binding result: binds

Source: paper PMC3972135, “Identification and Characterization of MT-1X as a Novel FHL3-Binding Partner” (PLoS ONE, 2014)
